Test results published in paper PMC4552016, “The Rsb Phosphoregulatory Network Controls Availability of the Primary Sigma Factor in Chlamydia trachomatis and Influences the Kinetics of Growth and Development” (PLoS Pathogens, 2015).

T1: σ^66, recombinant purified, amine-coupled SPR ligand (Chlamydia trachomatis, UniProt P18333 1-571)
T1 construct: Sigma66 (RpoD) of Chlamydia trachomatis, cloned from serovar D/UW/CX genomic DNA; may be the same construct as m12 (GST-σ66); also called Sigma66; RpoD; source: PC2 E. coli, pGEX-derived vector, purified
T1 sequence (looked up): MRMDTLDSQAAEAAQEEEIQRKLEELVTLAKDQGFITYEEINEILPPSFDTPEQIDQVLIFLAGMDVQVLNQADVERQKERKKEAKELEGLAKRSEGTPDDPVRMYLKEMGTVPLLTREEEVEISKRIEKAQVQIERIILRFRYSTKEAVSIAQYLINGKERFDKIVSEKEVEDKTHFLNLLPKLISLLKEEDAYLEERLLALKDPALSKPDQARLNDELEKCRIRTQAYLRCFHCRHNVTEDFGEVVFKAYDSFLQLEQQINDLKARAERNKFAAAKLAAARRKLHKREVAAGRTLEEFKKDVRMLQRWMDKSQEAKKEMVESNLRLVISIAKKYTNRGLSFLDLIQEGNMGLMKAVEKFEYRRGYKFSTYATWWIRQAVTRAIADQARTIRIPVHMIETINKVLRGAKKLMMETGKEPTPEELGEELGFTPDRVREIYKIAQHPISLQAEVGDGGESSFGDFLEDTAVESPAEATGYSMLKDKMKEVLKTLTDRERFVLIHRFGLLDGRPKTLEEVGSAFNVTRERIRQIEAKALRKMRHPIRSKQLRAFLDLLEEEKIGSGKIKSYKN

B1: RsbWCt, recombinant purified (SPR analyte) (natural protein, Chlamydia trachomatis, UniProt O84553 1-146, looked up)
chain: MTFSEGEQVFPATLQDLYPMLDFVKRAGVHCNCTQKKLSKLELACEELLLNIITHAYKGLPSTGWIRILCTETPDALLVRITDHGPAFNPITASPDIMRLDLPIEQRRIGGLGIFLAKYSVDVFDYERVNDTNVVTLTLYTKPHNS
notes: RsbW of Chlamydia trachomatis, cloned from serovar D/UW/CX genomic DNA; also called CT549; source: PC2 E. coli, pGEX-derived vector, purified
B2: RsbV1 S56A (natural protein)
chain: MSNFQKEEQGQTGILHLQGKLDGVSSPAVQESISESLSNGMKNIILDCGDLDYISAAGIRVLLQSYHQVGKNAGKIALTSVSKTVEQTLYVTGFLSYFKVFDSVNEALQALAKENS
notes: RsbV1 of Chlamydia trachomatis (serovar D/UW/CX) with the phospho-accepting serine 56 changed to alanine; also called alanine derivative of RsbV1; source: PC2 E. coli, pGEX-derived vector (site directed mutagenesis), purified
B3: RsbV2 S55A (natural protein)
chain: MEWIAREYKNIFIVSLKGDMDAVTVPALEEFLTKSIAKGRVNVLLNMEKVFYMSAAGLRTLLSLAKLTQNHNGKLCICCLRDEVADIIRIAGLDKVITIRKAEQESFSDF
notes: RsbV2 of Chlamydia trachomatis (serovar D/UW/CX) with the phospho-accepting serine 55 changed to alanine; also called alanine derivative of RsbV2; source: PC2 E. coli, pGEX-derived vector (site directed mutagenesis), purified

Columns and labels:
[1] = target: T1, σ^66, recombinant purified, …; test: SPR; Biacore 3000, CM5 chip; σ66, σ28 and σ54 amine-coupled to consecutive flow cells, RsbWCt analyte at various concentrations; reference flow cell with immobilized GST; Req as percent of theoretical Rmax; 10mM HEPES, 150mM NaCl, 1mM MgCl2, 30°C; conditions: both partners purified
[2] = target: B1; test: SPR; RsbV1, RsbV2 or their S-to-A / S-to-D derivatives immobilized on CM5 chip, RsbWCt analyte (2500nM for the wild-type ligands) with ATP, first and repeated injections; empty reference flow cell; 10mM HEPES, 150mM NaCl, 1mM MgCl2, 30°C; conditions: both partners purified

Binder	binding result [1]	binding result [2]
B1	binds	
B2		binds
B3		binds
